# Measurements: article PMC11574045, “A cofactor-induced repressive type of transcription factor condensation can be induced by synthetic peptides to suppress tumorigenesis” (The EMBO Journal, 2024)
# B1: VAX2 (protein, UniProt Q9UIW0 1-290, looked up)
# Ventral anterior homeobox 2: MGDGGAERDRGPARRAESGGGGGRCGDRSGAGDLRADGGGHSPTEVAGTSASSPAGSRESGADSDGQPGPGEADHCRRILVRDAKGTIREIVLPKGLDLDRPKRTRTSFTAEQLYRLEMEFQRCQYVVGRERTELARQLNLSETQVKVWFQNRRTKQKKDQSRDLEKRASSSASEAFATSNILRLLEQGRLLSVPRAPSLLALTPSLPGLPASHRGTSLGDPRNSSPRLNPLSSASASPPLPPPLPAVCFSSAPLLDLPAGYELGSSAFEPYSWLERKVGSASSCKKANT
# B2: ZBED2 (protein, UniProt Q9BTP6 1-218, looked up)
# Zinc finger BED …: MMRREDEEEEGTMMKAKGDLEMKEEEEISETGELVGPFVSAMPTPMPHNKGTRFSEAWEYFHLAPARAGHHPNQYATCRLCGRQVSRGPGVNVGTTALWKHLKSMHREELEKSGHGQAGQRQDPRPHGPQLPTGIEGNWGRLLEQVGTMALWASQREKEVLRRERAVEWRERAVEKRERALEEVERAILEMKWKVRAEKEACQREKELPAAVHPFHFV
# B3: XBP1 (protein, UniProt P17861 1-261, looked up)
# X-box-binding protein 1: MVVVAAAPNPADGTPKVLLLSGQPASAAGAPAGQALPLMVPAQRGASPEAASGGLPQARKRQRLTHLSPEEKALRRKLKNRVAAQTARDRKKARMSELEQQVVDLEEENQKLLLENQLLREKTHGLVVENQELRQRLGMDALVAEEEAEAKGNEVRPVAGSAESAALRLRAPLQQVQAQLSPLQNISPWILAVLTLQIQSLISCWAFWTTWTQSCSSNALPQSLPAWRSSQRSTQKDPVPYQPPFLCQWGRHQPSWKPLMN
# B4: YAF2 (protein, UniProt Q8IY57 1-180, looked up)
# YY1-associated factor 2: MGDKKSPTRPKRQPKPSSDEGYWDCSVCTFRNSAEAFKCMMCDVRKGTSTRKPRPVSQLVAQQVTQQFVPPTQSKKEKKDKVEKEKSEKETTSKKNSHKKTRPRLKNVDRSSAQHLEVTVGDLTVIITDFKEKTKSPPASSAASADQHSQSGSSSDNTERGMSRSSSPRGEASSLNGESH
# B5: UBTF (protein, UniProt P17480 1-764, looked up)
# Nucleolar transcription …: MNGEADCPTDLEMAAPKGQDRWSQEDMLTLLECMKNNLPSNDSSKFKTTESHMDWEKVAFKDFSGDMCKLKWVEISNEVRKFRTLTELILDAQEHVKNPYKGKKLKKHPDFPKKPLTPYFRFFMEKRAKYAKLHPEMSNLDLTKILSKKYKELPEKKKMKYIQDFQREKQEFERNLARFREDHPDLIQNAKKSDIPEKPKTPQQLWYTHEKKVYLKVRPDATTKEVKDSLGKQWSQLSDKKRLKWIHKALEQRKEYEEIMRDYIQKHPELNISEEGITKSTLTKAERQLKDKFDGRPTKPPPNSYSLYCAELMANMKDVPSTERMVLCSQQWKLLSQKEKDAYHKKCDQKKKDYEVELLRFLESLPEEEQQRVLGEEKMLNINKKQATSPASKKPAQEGGKGGSEKPKRPVSAMFIFSEEKRRQLQEERPELSESELTRLLARMWNDLSEKKKAKYKAREAALKAQSERKPGGEREERGKLPESPKRAEEIWQQSVIGDYLARFKNDRVKALKAMEMTWNNMEKKEKLMWIKKAAEDQKRYERELSEMRAPPAATNSSKKMKFQGEPKKPPMNGYQKFSQELLSNGELNHLPLKERMVEIGSRWQRISQSQKEHYKKLAEEQQKQYKVHLDLWVKSLSPQDRAAYKEYISNKRKSMTKLRGPNPKSSRTTLQSKSESEEDDEEDEDDEDEDEEEEDDENGDSSEDGGDSSESSSEDESEDGDENEEDDEDEDDDEDDDEDEDNESEGSSSSSSSSGDSSDSDSN
# B6: C1D (protein, UniProt Q13901 1-141, looked up)
# Nuclear nucleic acid-binding …: MAGEEINEDYPVEIHEYLSAFENSIGAVDEMLKTMMSVSRNELLQKLDPLEQAKVDLVSAYTLNSMFWVYLATQGVNPKEHPVKQELERIRVYMNRVKEITDKKKAGKLDRGAASRFVKNALWEPKSKNASKVANKGKSKS
# B7: WNT3A (protein, UniProt P56704 19-352, looked up)
# Protein Wnt-3a: SYPIWWSLAVGPQYSSLGSQPILCASIPGLVPKQLRFCRNYVEIMPSVAEGIKIGIQECQHQFRGRRWNCTTVHDSLAIFGPVLDKATRESAFVHAIASAGVAFAVTRSCAEGTAAICGCSSRHQGSPGKGWKWGGCSEDIEFGGMVSREFADARENRPDARSAMNRHNNEAGRQAIASHMHLKCKCHGLSGSCEVKTCWWSQPDFRAIGDFLKDKYDSASEMVVEKHRESRGWVETLRPRYTYFKVPTERDLVYYEASPNFCEPNPETGSFGTRDRTCNVSSHGIDGCDLLCCGRGHNARAERRREKCRCVFHWCCYVSCQECTRVYDVHTCK
# B8: VENTX (protein, UniProt O95231 1-258, looked up)
# Homeobox protein VENTX: MRLSSSPPRGPQQLSSFGSVDWLSQSSCSGPTHTPRPADFSLGSLPGPGQTSGAREPPQAVSIKEAAGSSNLPAPERTMAGLSKEPNTLRAPRVRTAFTMEQVRTLEGVFQHHQYLSPLERKRLAREMQLSEVQIKTWFQNRRMKHKRQMQDPQLHSPFSGSLHAPPAFYSTSSGLANGLQLLCPWAPLSGPQALMLPPGSFWGLCQVAQEALASAGASCCGQPLASHPPTPGRPSLGPALSTGPRGLCAMPQTGDAF
# B9: USP22 (protein, UniProt Q9UPT9 1-525, looked up)
# Ubiquitin carboxyl-terminal …: MVSRPEPEGEAMDAELAVAPPGCSHLGSFKVDNWKQNLRAIYQCFVWSGTAEARKRKAKSCICHVCGVHLNRLHSCLYCVFFGCFTKKHIHEHAKAKRHNLAIDLMYGGIYCFLCQDYIYDKDMEIIAKEEQRKAWKMQGVGEKFSTWEPTKRELELLKHNPKRRKITSNCTIGLRGLINLGNTCFMNCIVQALTHTPLLRDFFLSDRHRCEMQSPSSCLVCEMSSLFQEFYSGHRSPHIPYKLLHLVWTHARHLAGYEQQDAHEFLIAALDVLHRHCKGDDNGKKANNPNHCNCIIDQIFTGGLQSDVTCQVCHGVSTTIDPFWDISLDLPGSSTPFWPLSPGSEGNVVNGESHVSGTTTLTDCLRRFTRPEHLGSSAKIKCSGCHSYQESTKQLTMKKLPIVACFHLKRFEHSAKLRRKITTYVSFPLELDMTPFMASSKESRMNGQYQQPTDSLNNDNKYSLFAVVNHQGTLESGHYTSFIRQHKDQWFKCDDAIITKASIKDVLDSEGYLLFYHKQFLEYE
# B10: ZBTB17 (protein, UniProt Q13105 1-803, looked up)
# Zinc finger and BTB …: MDFPQHSQHVLEQLNQQRQLGLLCDCTFVVDGVHFKAHKAVLAACSEYFKMLFVDQKDVVHLDISNAAGLGQVLEFMYTAKLSLSPENVDDVLAVATFLQMQDIITACHALKSLAEPATSPGGNAEALATEGGDKRAKEEKVATSTLSRLEQAGRSTPIGPSRDLKEERGGQAQSAASGAEQTEKADAPREPPPVELKPDPTSGMAAAEAEAALSESSEQEMEVEPARKGEEEQKEQEEQEEEGAGPAEVKEEGSQLENGEAPEENENEESAGTDSGQELGSEARGLRSGTYGDRTESKAYGSVIHKCEDCGKEFTHTGNFKRHIRIHTGEKPFSCRECSKAFSDPAACKAHEKTHSPLKPYGCEECGKSYRLISLLNLHKKRHSGEARYRCEDCGKLFTTSGNLKRHQLVHSGEKPYQCDYCGRSFSDPTSKMRHLETHDTDKEHKCPHCDKKFNQVGNLKAHLKIHIADGPLKCRECGKQFTTSGNLKRHLRIHSGEKPYVCIHCQRQFADPGALQRHVRIHTGEKPCQCVMCGKAFTQASSLIAHVRQHTGEKPYVCERCGKRFVQSSQLANHIRHHDNIRPHKCSVCSKAFVNVGDLSKHIIIHTGEKPYLCDKCGRGFNRVDNLRSHVKTVHQGKAGIKILEPEEGSEVSVVTVDDMVTLATEALAATAVTQLTVVPVGAAVTADETEVLKAEISKAVKQVQEEDPNTHILYACDSCGDKFLDANSLAQHVRIHTAQALVMFQTDADFYQQYGPGGTWPAGQVLQAGELVFRPRDGAEGQPALAETSPTAPECPPPAE
# B11: USP49 (protein, UniProt Q70CQ1 1-688, looked up)
# Ubiquitin carboxyl-terminal …: MDRCKHVGRLRLAQDHSILNPQKWCCLECATTESVWACLKCSHVACGRYIEDHALKHFEETGHPLAMEVRDLYVFCYLCKDYVLNDNPEGDLKLLRSSLLAVRGQKQDTPVRRGRTLRSMASGEDVVLPQRAPQGQPQMLTALWYRRQRLLARTLRLWFEKSSRGQAKLEQRRQEEALERKKEEARRRRREVKRRLLEELASTPPRKSARLLLHTPRDAGPAASRPAALPTSRRVPAATLKLRRQPAMAPGVTGLRNLGNTCYMNSILQVLSHLQKFRECFLNLDPSKTEHLFPKATNGKTQLSGKPTNSSATELSLRNDRAEACEREGFCWNGRASISRSLELIQNKEPSSKHISLCRELHTLFRVMWSGKWALVSPFAMLHSVWSLIPAFRGYDQQDAQEFLCELLHKVQQELESEGTTRRILIPFSQRKLTKQVLKVVNTIFHGQLLSQVTCISCNYKSNTIEPFWDLSLEFPERYHCIEKGFVPLNQTECLLTEMLAKFTETEALEGRIYACDQCNSKRRKSNPKPLVLSEARKQLMIYRLPQVLRLHLKRFRWSGRNHREKIGVHVVFDQVLTMEPYCCRDMLSSLDKETFAYDLSAVVMHHGKGFGSGHYTAYCYNTEGGFWVHCNDSKLNVCSVEEVCKTQAYILFYTQRTVQGNARISETHLQAQVQSSNNDEGRPQTFS
# B12: C16orf5 (protein, UniProt Q9H305 1-208, looked up)
# Cell death-inducing …: MSSEPPPPYPGGPTAPLLEEKSGAPPTPGRSSPAVMQPPPGMPLPPADIGPPPYEPPGHPMPQPGFIPPHMSADGTYMPPGFYPPPGPHPPMGYYPPGPYTPGPYPGPGGHTATVLVPSGAATTVTVLQGEIFEGAPVQTVCPHCQQAITTKISYEIGLMNFVLGFFCCFMGCDLGCCLIPCLINDFKDVTHTCPSCKAYIYTYKRLC
# Test system: HEK293FT cells transfected with TF library
# Experiment: Screening of TF condensates based on fluorescent puncta
# Type: cell-based
# Settings: Figure 1B numerical data; TF library screen, one value per transcriptional factor
# In short: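 Cells were seeded onto plasmid/PEI-loaded wells (plasmid 1.6 μg/ml final) and grown 60 h. Medium with or without glucose followed for 12 h. Fixed, permeabilized cells were stained against Flag or GAL4 tags, and condensate puncta were quantified from 50 random fields per well.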
row,Molecule,Z score of condensed fraction
1,B1,-0.9394
2,B2,0.7838
3,B3,-0.3977
4,B4,1.84
5,B5,-0.959
6,B6,-0.3287
7,B7,-0.5314
8,B8,-0.4099
9,B9,0.5078
10,B10,-0.2141
11,B11,-0.174
12,B12,3.145
